From paper PMC3986302 (International Journal of Nanomedicine, 2014) come the findings set out here.

The experiment has as its target T1, full-length p63 (GST-fusion) (human, UniProt Q9H3D4 1-680).
T1 sequence (looked up): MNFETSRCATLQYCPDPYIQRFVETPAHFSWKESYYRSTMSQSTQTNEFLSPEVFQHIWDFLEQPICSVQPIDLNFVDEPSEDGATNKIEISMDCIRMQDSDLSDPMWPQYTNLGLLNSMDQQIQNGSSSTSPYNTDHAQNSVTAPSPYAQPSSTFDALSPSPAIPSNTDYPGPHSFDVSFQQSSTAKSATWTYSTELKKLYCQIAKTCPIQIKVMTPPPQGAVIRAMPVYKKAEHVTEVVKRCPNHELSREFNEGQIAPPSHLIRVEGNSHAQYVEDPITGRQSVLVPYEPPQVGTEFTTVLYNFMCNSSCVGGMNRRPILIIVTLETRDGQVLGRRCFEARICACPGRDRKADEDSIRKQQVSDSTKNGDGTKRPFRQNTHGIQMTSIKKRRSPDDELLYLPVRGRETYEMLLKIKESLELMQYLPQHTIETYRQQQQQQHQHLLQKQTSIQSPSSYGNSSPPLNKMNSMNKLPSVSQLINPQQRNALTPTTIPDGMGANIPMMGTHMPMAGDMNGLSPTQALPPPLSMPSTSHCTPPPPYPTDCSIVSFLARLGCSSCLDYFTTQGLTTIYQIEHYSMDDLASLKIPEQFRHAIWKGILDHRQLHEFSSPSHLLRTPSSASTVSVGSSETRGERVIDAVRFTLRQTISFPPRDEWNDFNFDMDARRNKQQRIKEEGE
Briefly: atomic force spectroscopy.

As to LSTAADMQGVVTDGMASGLDKDYLKPDD [p28], the binding result is on record as “binds”.
